Results as given in article PMC6321479, “The C Terminus of the Ribosomal-Associated Protein LrtA Is an Intrinsically Disordered Oligomer” (International Journal of Molecular Sciences, 2018).

Assays:
[1] = target: the molecule itself; test: SEC; Superose 12 10/300 GL, pH 8.0 (50 mM Tris), 0.250 M NaCl, 0.8 mL/min; C-LrtA loaded at 500 uM (protomer), 100 uL
[2] = target: the molecule itself; test: cross-linking; glutaraldehyde, pH 7.2 (50 mM Tris), 120 uM C-LrtA (protomer), 200 uL, several reaction times, SDS-PAGE
[3] = target: the molecule itself; test: native gel or EMSA; blue-native PAGE, linear 4-16% gradient gel, 20 ug C-LrtA with Coomassie Brilliant blue G, 4 °C; increasing amounts of SDS also tested
[4] = target: the molecule itself; test: SEC; Superose 12 10/300 GL, pH 8.0 (50 mM Tris), 0.250 M NaCl, 0.8 mL/min; C-LrtA loaded at 30 uM (protomer), 100 uL

B1: C-terminal region of LrtA (C-LrtA, residues 102-191) with N-terminal His-tag (domain or fragment, Synechocystis sp. PCC 6803)
chain: QHGNVKTSEIVEDKPVEENLIGDRAPELPSEVLRMKYFAMPPMAIEDALEQLQLVDHDFYMFRNKDTDEINVIYIRNHGGYGVIQPHQAS
notes: LrtA of Synechocystis sp; PCC 6803 (191 residues), residues 102-191; whole construct 109 residues with the His-tag, 12,449.89 Da; Cloned in pHTP1 by NZytech; also called isolated C-LrtA; C-terminal half of LrtA protein; source: E. coli BL21 (DE3), purified (Ni-resin IMAC, Hi-Trap Mono Q)
- stoichiometry N [1]: ~8
- stoichiometry N [2]: 2
- stoichiometry N [3]: 5
- stoichiometry N [4]: ~2
